Several values for one entry are separate records, joined by “and”; a condition that tells them apart may be missing. Equal entries are not always repeated. Where two headings read alike, the source gives them in different places.
What was measured:
[1] = target: T1, epidermal growth factor receptor (EGFR) on tumor cells (human, UniProt P00533 25-1210); assay: flow cytometry, soluble monomeric scFv on A431 cells, 4 C, equilibrium
T1 construct: whole, on cells; also called EGFR on A431 cells; EGFR on MDAMB468 cells
Description: (§1) Cell binding was performed at 4° C. in FACS buffer in a volume calculated to ensure fivefold scFv excess and for a duration calculated to ensure that the reaction had reached equilibrium. After two washes with 200 μL of FACS buffer, cell-bound scFv was detected by the addition of 100 μl of 1 μg/ml biotinylated His probe (Santa Cruz Biotech.) and a 1:800 (v/v) dilution of streptavidin-PE (Biosource). After incubation at 4° C. for 30 min, the cells were washed twice and resuspended in PBS containing 4% (v/v) paraformaldehyde. Fluorescence was measured by flow cytometry in a FACS LSRII instrument (Becton Dickinson), and the median fluorescence intensity (MFI) values were fit to the equation: […]
(§2) To generate soluble scFv, the scFv genes were subcloned from pYD2 into the bacterial secretion vector pSYN1 (Schier et al (1995) Immunotechnology, 1:73-81), which directed the scFv to the bacterial periplasm using the pelB leader. The scFv was harvested from the bacterial periplasm and purified by immobilized metal-affinity chromatography as described (Id.). […] To ensure that the KD of monovalent scFv was determined, gel-filtration chromatography was performed as described (Schier and Marks (1996) Hum. Antibodies Hybridomas: 7: 97-105) to separate native monovalent scFv from dimeric scFv and aggregated scFv. scFv was used for cellular KD measurements immediately after gel-filtration.

[2] = tested on: EGFR-over-expressing MDAMB468 cells; assay: Internalization/uptake of anti-EGFR immunoliposomes (microscopy, flow cytometry); assay type: cell-based, Human; conditions: 74 scFv/liposome; for endocytosis of ILs by fluorescence microscopy: MDAMB468
Description: (§3) scFv-mediated internalization of fluorescent immunoliposomes was analyzed and quantified by microscopy and flow cytometry. C10 scFv fragments were inserted into liposomes at ratios of 5, 10, 15, 30 and 60 μg scFv/μmol phospholipid (Mamot et al. (2003) Cancer Res. 63: 3154-3161). scFv densities of 16, 32, 48, 96 and 192 scFv/liposome were calculated on the basis of the molecular mass of scFv (26 kDa) and the approximate number of phospholipid molecules/liposome (80,000). The conjugation technology for scFv to Mal-PEG-DSPE is remarkably reproducible with an efficiency of 77.3(±3.1) % (range 75-82% over six batches) (Nellis et al. (2005) Biotechnol. Prog. 21: 205-220). […] For microscopy studies, 150,000 cells were incubated with 50 μM PL of untargeted and EGFR-targeted ILs labeled with DiIC18(3)-DS in a 12-well plate for 2 h at 37° C., followed by washing with PBS and further incubation at 37° C. for 2 h. The cells were then analyzed by using an inverted fluorescence microscope (Nikon Eclipse, TE300) with a 540/25 nm band-pass filter for excitation and a long-pass filter at 565 nm for emission. For quantitative uptake of immunoliposomes, 250,000 cells were incubated with EGFR-targeted ILs labeled with ADS645 in a six-well plate for 2 h at 37° C., washed with PBS, removed in trypsin solution and fluorescence quantified with a FACSAria instrument (Beckton Dickinson). To determine the effect of EGF competition on internalization of EGFR-targeted ILs, IL internalization was quantified as described above, except that 50 μM targeted ILs and cells were incubated with EGF concentrations ranging from 0.2-25 nM. ANOVA (analysis of variance) was used to analyze the statistical differences of the quantified uptake.

MDAMB231 cells = assay: Uptake of EGFR immunoliposomes into cells of lower EGFR density; assay type: cell-based, human; conditions: for IL uptake into MDAMB231 cells compared to A431 cells: all scFv densities studied, 480,000 EGFR/cell
Description: as §3
To determine the impact of receptor density on IL uptake, we measured the uptake of the different ILs into MDAMB231 cells which express 480,000 EGFR/cell as determined by flow cytometry using Quantum Simply Cellular anti-Human IgG beads (Bangs Laboratories Inc.). […] Uptake into MDAMB231 cells increased with increasing scFv density, reaching a plateau at an IL scFv density of 74 scFv/IL for P2/4 scFv and at 37 scFv/IL for 2224 scFv (FIG. 6C).

[3] = target: MDAMB468 cells expressing intact EGFR (Homo sapiens, UniProt P00533); conditions: EGF competition
biotinylated EGFR-ECD = target: T2, biotinylated EGFR-ECD (Homo sapiens, UniProt P00533); assay: Yeast-displayed scFv affinity for biotinylated EGFR-ECD by flow cytometry; assay type: binding; conditions: scFv displayed on yeast; EGFR-ECD only 10% immunoreactive; read-out: KD for biotin-EGFR ECD
T2 construct: Recombinant EGFR-ECD was expressed in HEK293 cells; biotin (chemical label, NHS-sulfo-LC-biotin on amines); made in house; host or cells: HEK293 cells
Description: (§4) Generally, six to eight different concentrations of biotinylated EGFR were used to span a range of concentrations from ten times above to ten times below the KD. Incubation volumes, times and yeast numbers were chosen to ensure that the studies were done in at least fivefold antigen excess and that equilibrium had been achieved (Razai et al. (2005) J. Mol. Biol. 351: 158-169). For anti-EGFR scFv, […] in 50 μl were incubated with biotinylated EGFR-ECD for 1 h at room temperature. […] Only yeast displaying scFv (as determined by binding of SV5 mAb) were gated for affinity measurements.

[4] = target: T3, A431 cells expressing EGFR (Homo sapiens, UniProt P00533); assay: Measurement of scFv affinity for cells expressing EGFR (flow cytometry); assay type: binding; conditions: soluble monovalent scFv, 4° C.
T3 construct: Human squamous carcinoma A431 cells expressing EGFR; endogenous in cells; host or cells: A431 epidermal (squamous) carcinoma cells
Description: Human squamous carcinoma A431 cells expressing EGFR were grown to 80-90% confluence in RPMI medium supplemented with 10% fetal bovine serum and harvested by trypsinization. […] Cell binding was performed at 4° C. in FACS buffer in a volume calculated to ensure fivefold scFv excess and for a duration calculated to ensure that the reaction had reached equilibrium. After two washes with 200 μL of FACS buffer, cell-bound scFv was detected by the addition of 100 μl of 1 μg/ml biotinylated His probe (Santa Cruz Biotech.) and a 1:800 (v/v) dilution of streptavidin-PE (Biosource). After incubation at 4° C. for 30 min, the cells were washed twice and resuspended in PBS containing 4% (v/v) paraformaldehyde. Fluorescence was measured by flow cytometry in a FACS LSRII instrument (Becton Dickinson), and the median fluorescence intensity (MFI) values were fit to the equation:
MFI=MFImin+MFImax([Ab]/(KD+[Ab])
using the software program Kaleidagraph as described previously (Benedict et al. (1997) J. Immunol. Methods, 201: 223-231).

[5] = target: T4, MDAMB468 cells expressing EGFR (Homo sapiens, UniProt P00533); assay: Immunoliposome binding affinity for cells expressing EGFR (flow cytometry); conditions: read-out: Apparent KD of immunoliposomes
T4 construct: Human breast cancer MDAMB468 cells expressing EGFR; endogenous in cells; host or cells: MDAMB468 breast carcinoma cells
Description: Human breast cancer MDAMB468 cells expressing EGFR were grown to 80-90% confluence in L15 medium supplemented with 10% FBS and harvested by trypsinization. ILs labeled with DiIC18(3)-DS were incubated overnight with 10^4 cells at concentrations of IL ranging from 0.31-2.5 nM. The concentration of IL was converted from the concentration of phospholipid on the basis of the approximate number of phospholipid molecules per liposome (80,000). Cell binding was performed at 4° C. in FACS buffer in adequate volume to ensure a fivefold excess of ILs and that the reaction had come to equilibrium. After two washes with 200 μl of FACS buffer, the amount of cell-bound ILs was quantified by flow cytometry in a FACS LSRII (Becton Dickinson). Data analysis was the same as for the measurement of scFv KD.

[6] = target: T5, biotinylated recombinant EGFR-ECD (UniProt P00533 25-645, limits assumed, biotinylated with NHS-sulfo-LC-biotin); assay: flow cytometry, yeast-displayed scFv, biotinylated EGFR-ECD, equilibrium
T5 construct: extracellular domain; The claims speak of human EGFR; also called biotin-EGFR ECD; biotinylated EGFR
Description: as §4

[7] = target: T1, epidermal growth factor receptor (EGFR) …; assay: flow cytometry, soluble scFv on A431 cells; this end is tied to P3/5 through the KD values of Table 2
Description: as §1, with “After” for “Cell binding was performed at 4° C. in FACS buffer in a volume calculated to ensure fivefold scFv excess and for a duration calculated to ensure that the reaction had reached equilibrium. After”
as §2

B1: anti-EGFR scFv C10 (scFv, V domains shown)
VH: EVQLVQSGAEVKKPGSSVKVSCKASGGTFSSYAISWVRQAPGQGLEWMGGIIPIFGTANYAQKFQGRVTITADESTSTAYMELSSLRSEDTAVYYCAREEGPYCSSTSCYGAFDIWGQGTLVTVSS
VL: QSVLTQDPAVSVALGQTVKITCQGDSLRSYFASWYQQKPGQAPTLVMYARNDRPAGVPDRFSGSKSGTSASLAISGLQSEDEADYYCAAWDDSLNGYLFGAGTKLTVL
notes: Soluble monomeric scFv from pSYN1 in E. coli (Ni-NTA purified, detected with a His probe) in the assays on cells; also called C10 scFv; wild-type C10 scFv
[1]
  Kd: 0.264 µM

B2: 2224: combined mutant scFv: P2/2 with the VH CDR3 Gly to Ala mutation from P2/4; SEQ ID NO:17 and 24 (protein)
scFv: QSVLTQDPAVSVALGQTVKITCQGDSLRSYLASWYQQKPGQAPTLVTYARNDRPAGVPDRFSGSKSGTSASLAISGLQSEDEADYYCAAWDDSLNGYLFGAGTKLTVL
modifications: Variable chain of single chain antibody.
[2]; IL 0.63 nM, flow cytometry
  difference in IL uptake versus ILs from C10 or P2/4 scFv: no statistically significant difference
[2]
  endocytosis of ILs by fluorescence microscopy: endocytosed efficiently
MDAMB231 cells
  IL scFv density at which uptake into MDAMB231 cells reaches a plateau: 37 scFv/IL
  IL uptake into MDAMB231 cells compared to A431 cells: significantly less uptake
[3]
  IC50 of ILs less than the scFv IC50: 20 fold

B3: P2/4: C10 scFv mutant, Gly to Ala in VH CDR3 and Pro to Ala in VL FR1; SEQ ID NO:5 (protein)
scFv: EVQLVQSGAEVKKPGSSVKVSCKASGGTFSSYAISWVRQAPGQGLEWMGGIIPIFGTANYAQKFQGRVTITADESTSTAYMELSSLRSEDTAVYYCAREEGPYCSSTSCYAAFDIWGQGTLVTVSS
modifications: Variable chain of single chain antibody.
Biotinylated EGFR-ECD
  Kd: 1.8 µM
[4]
  Kd: 0.015 µM and 0.0154 µM
[5]; 37 scFv/liposome
  Kd: 0.00204 µM
[5]; 74 scFv/liposome
  Kd: 0.0004 µM
[5]; 148 scFv/liposome
  Kd: 0.00018 µM
[2]; IL 0.63 nM, flow cytometry
  IL uptake greater compared to C10: 24%
[2]
  endocytosis of ILs by fluorescence microscopy: endocytosed efficiently
MDAMB231 cells
  IL scFv density at which uptake into MDAMB231 cells reaches a plateau: 74 scFv/IL
  IL uptake into MDAMB231 cells compared to A431 cells: significantly less uptake

B4: P3/5: C10 scFv mutant from the P3 sort gate; SEQ ID NO:11 (protein)
scFv: EVQLVQSGAEVKKPGSSVKVSCKASGGTFSSYAISWVRQAPGQGLEWVGGIIPIFGTANYAQKFQGRVKITADESASTAYMELSSLRSEDTAVYYCAREEGPYCSSTSCYGAFDIWGQGTLVTVSS
modifications: Variable chain of single chain antibody.
[4]
  Kd: 0.088 µM

B5: combined C10 mutant scFv 2224 (scFv, V domains shown)
VH: EVQLVQSGAEVKKPGSSVKVSCKASGGTFSSYAIGWVRQAPGQGLEWMGGIIPIFGIANYAQKFQGRVTITADESTSSAYMELSSLRSEDTAVYYCAREEGPYCSSTSCYAAFDIWGQGTLVTVSS
VL: QSVLTQDPAVSVALGQTVKITCQGDSLRSYFASWYQQKPGQAPTLVMYARNDRPAGVPDRFSGSKSGTSASLAISGLQPEDEADYYCAAWDDSLNGYLFGAGTKLTVL
notes: P2/2 with the VH CDR3 Gly to Ala substitution of P2/4; soluble His-tagged monomeric scFv on cells
[6]
  Kd: 0.6 µM

B6: C10 mutant scFv P3/5 (scFv, V domains shown)
VH: EVQLVQSGAEVKKPGSSVKVSCKASGGTFSSYAISWVRQAPGQGLEWVGGIIPIFGTANYAQKFQGRVKITADESASTAYMELSSLRSEDTAVYYCAREEGPYCSSTSCYGAFDIWGQGTLVTVSS
VL: QSVLTQDPAVSVALGQTVKITCQGDSLRSYLASWYQQKPGQAPTLVTYARNDRPAGVPDRFSGSKSGTSASLAISGLQSEDEADYYCAAWDDSLNGYLFGAGTKLTVL
notes: soluble His-tagged monomeric scFv on cells
[1]
  Kd: 0.0882 µM
[7]
  fold improvement in affinity compared to C10 scFv: 3 to 18 fold

B7: C10 mutant scFv P2/2 (scFv, V domains shown)
VH: EVQLVQSGAEVKKPGSSVKVSCKASGGTFSSYAIGWVRQAPGQGLEWMGGIIPIFGIANYAQKFQGRVTITADESTSSAYMELSSLRSEDTAVYYCAREEGPYCSSTSCYGAFDIWGQGTLVTVSS
VL: QSVLTQDPAVSVALGQTVKITCQGDSLRSYFASWYQQKPGQAPTLVMYARNDRPAGVPDRFSGSKSGTSASLAISGLQPEDEADYYCAAWDDSLNGYLFGAGTKLTVL
notes: as for B6
[1]
  Kd: 0.017 µM
[6]
  Kd: 1.8 µM

— patent US20100009390A1, “MUTANT ANTIBODIES WITH HIGH AFFINITY FOR EGFR” (THE REGENTS OF THE UNIVERSITY OF CALIFORNIA, priority 2008, published 2010)
